B1: library; numbered along this chain (parent)
chain: MRKPRAAVGSGHRKQAASQEGRQKHAKNNSQAKPSACDGLARQPEEVVLQASVSSYHLFRDVAEVTAFRGSLLSWYDQEKRDLPWRRRAEDEMDLDRRAYAVWVSEVMLQQTQVATVINYYTGWMQKWPTLQDLASASLEEVNQLWAGLGYYSRGRRLQEGARKVVEELGGHMPRTAETLQQLLPGVGRYTAGAIASIAFGQATGVVDGNVARVLCRVRAIGADPSSTLVSQQLWGLAQQLVDPARPGDFNQAAMELGATVCTPQRPLCSQCPVESLCRARQRVEQEQLLASGSLSGSPDVEECAPNTGQCHLCLPPSEPWDQTLGVVNFPRKASRKPPREESSATCVLEQPGALGAQILLVQRPNSGLLAGLWEFPSVTWEPSEQLQRKALLQELQRWAGPLPATHLRHLGEVVHTFSHIKLTYQVYGLALEGQTPVTTVPPGARWLTQEEFHTAAVSTAMKKVFRVYQGQQPGTCMGSKRSQVSSPCSRKKPRMGQQVLDNFFRSHISTDAHSLNSAAQ

Variants of: B1
Assay: 8OG:A repair function score (normalized; synonymous = 0, nonsense = -1) (normalized log-likelihood score); higher = more repair activity (WT-like)
Details: with 8OG:A DNA repair reporter (GFP) in HEK-293 MUTYH KO cells
Description: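 Saturation mutagenesis (NNN codon scan) of the MUTYH cDNA (521-aa nuclear isoform NM_001048174.1 / NP_001041639), stably expressed under doxycycline induction in HEK-293 MUTYH knockout cells. Cells were co-transfected with an 8OG:A-bearing GFP repair reporter plus mCherry and sorted 72 h later into GFP+ and GFP− bins, three replicates per tile. The Rosace log2 enrichment (GFP+ vs GFP−) was converted per tile to a normalized function score with synonymous variants centered at 0 and nonsense variants (codons 1-471) at -1; low-abundance variants were removed.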

Variant | 8OG:A repair function score
MRKPRAAVGSGHRKQAASQEGRQKHAKNNSQAKPSACDGLARQPEEVVLQASVSSYHLFRDVAEVTAFRGSLLSWYDQEKRDLPWRRRAEDEMDLDRRAYAVWVSEVMLQQTQVATVINYYTGWMQKWPTLQDLASASLEEVNQLWAGLGYYSRGRRLQEGARKVVEELGGHMPRTAETLQQLLPGVGRYTAGAIASIAFGQATGVVDGNVARVLCRVRAIGADPSSTLVSQQLWGLAQQLVDPARPGDFNQAAMELGATVCTPQRPLCSQCPVESLCRARQRVEQEQLLASGSLSGSPDVEECAPNTGQCHLCLPPSEPWDQTLGVVNFPRKASRKPPREESSATCVLEQPGALGAQILLVQRPNSGLLFGLWEFPSVTWEPSEQLQRKALLQELQRWAGPLPATHLRHLGEVVHTFSHIKLTYQVYGLALEGQTPVTTVPPGARWLTQEEFHTAAVSTAMKKVFRVYQGQQPGTCMGSKRSQVSSPCSRKKPRMGQQVLDNFFRSHISTDAHSLNSAAQ [A371F] | -0.605
MRKPRAAVGSGHRKQAASQEGRQKHAKNNSQAKPSACDGLARQPEEVVLQASVSSYHLFRDVAEVTAFRGSLLSWYDQEKRDLPWRRRAEDEMDLDRRAYAVWVSEVMLQQTQVATVINYYTGWMQKWPTLQDLASASLEEVNQLWAGLGYYSRGRRLQEGARKVVEELGGHMPRTAETLQQLLPGVGRYTAGAIASIAFGQATGVVDGNVARVLCRVRAIGADPSSTLVSQQLWGLAQQLVDPARPGDFNQAAMELGATVCTPQRPLCSQCPVESLCRARQRVEQEQLLASGSLSGSPDVEECAPNTGQCHLCLPPSEPWDQTLGVVNFPRKASRKPPREESSATCVLEQPGALGAQILLVQRPNSGLLAGLWEFPSVTWEPSEQLQRKALLQELQRWAGPLPATHLRHLGEVVHTFSHIKLTYQVYGLALEGQTPVTTVPPGARWLTQEEFHTAAVSTAMKKVFRVYQGQQPGTTMGSKRSQVSSPCSRKKPRMGQQVLDNFFRSHISTDAHSLNSAAQ [C477T] | 0.019
MRKPRAAVGSGHRKQAASQEGRQKHAKNNSQAKPSACDGLARQPEEVVLQASVSSYHLFRDVAEVTAFRGSLLSWYDQEKRDLPWRRRAEDEMDLDRRAYAVWVSEVMLQQTQVATVINYYTGWMQKWPTLQDLASASLEEVNQLWAGLGYYSRGRRLQEGARKVVEELGGHMPRTAETLQNLLPGVGRYTAGAIASIAFGQATGVVDGNVARVLCRVRAIGADPSSTLVSQQLWGLAQQLVDPARPGDFNQAAMELGATVCTPQRPLCSQCPVESLCRARQRVEQEQLLASGSLSGSPDVEECAPNTGQCHLCLPPSEPWDQTLGVVNFPRKASRKPPREESSATCVLEQPGALGAQILLVQRPNSGLLAGLWEFPSVTWEPSEQLQRKALLQELQRWAGPLPATHLRHLGEVVHTFSHIKLTYQVYGLALEGQTPVTTVPPGARWLTQEEFHTAAVSTAMKKVFRVYQGQQPGTCMGSKRSQVSSPCSRKKPRMGQQVLDNFFRSHISTDAHSLNSAAQ [Q182N] | -0.133
MRKPRAAVGSGHRKQAASQEGRQKHAKNNSQAKPSACDGLARQPEEVVLQASVSSYHLFRDVAEVTAFRGSLLSWYDQEKRDLPWRRRAEDEHDLDRRAYAVWVSEVMLQQTQVATVINYYTGWMQKWPTLQDLASASLEEVNQLWAGLGYYSRGRRLQEGARKVVEELGGHMPRTAETLQQLLPGVGRYTAGAIASIAFGQATGVVDGNVARVLCRVRAIGADPSSTLVSQQLWGLAQQLVDPARPGDFNQAAMELGATVCTPQRPLCSQCPVESLCRARQRVEQEQLLASGSLSGSPDVEECAPNTGQCHLCLPPSEPWDQTLGVVNFPRKASRKPPREESSATCVLEQPGALGAQILLVQRPNSGLLAGLWEFPSVTWEPSEQLQRKALLQELQRWAGPLPATHLRHLGEVVHTFSHIKLTYQVYGLALEGQTPVTTVPPGARWLTQEEFHTAAVSTAMKKVFRVYQGQQPGTCMGSKRSQVSSPCSRKKPRMGQQVLDNFFRSHISTDAHSLNSAAQ [M93H] | -0.01
MRKPRAAVGSGHRKQAASQEGRQKHAKNNSQAKPSACDGLARQPEEVVLQASVSSYHLFRDVAEVTAFRGSLLSWYDQEKRDLPWRRRAEDEMDLDRRAYAVWVSEVMLQQTQVATVINYYTGWMQKWPTLQDLASASLEEVNQLWAGLGYYSRGRRLQEGARKVVEELGGHMPRTAETLQQLLPGVGRYTAGAIASIAFGQATGVVDGNVARVLCRVRAIGADPSSTLVSQQLWGLAAQLVDPARPGDFNQAAMELGATVCTPQRPLCSQCPVESLCRARQRVEQEQLLASGSLSGSPDVEECAPNTGQCHLCLPPSEPWDQTLGVVNFPRKASRKPPREESSATCVLEQPGALGAQILLVQRPNSGLLAGLWEFPSVTWEPSEQLQRKALLQELQRWAGPLPATHLRHLGEVVHTFSHIKLTYQVYGLALEGQTPVTTVPPGARWLTQEEFHTAAVSTAMKKVFRVYQGQQPGTCMGSKRSQVSSPCSRKKPRMGQQVLDNFFRSHISTDAHSLNSAAQ [Q239A] | -0.104
MRKPRAAVGSGHRKQAASQEGRQKHAKNNSQAKPSACDGLARQPEEVVLQASVSSYHLFRDVAEVTAFRGSLLSWYDQEKRDLPWRRRAEDEMDLDRRAYAVWVSEVMLQQTQVATVINYYTGWMQKWPTLQDLASASLEEVNQLWAGLGYYSRGRRLQEGARKVVEELGGHMPRTAETLQQLLPGVGRYTAGAIASIAFGQATGVVDGNVARVLCRVRAIGADPSSTLVSQVLWGLAQQLVDPARPGDFNQAAMELGATVCTPQRPLCSQCPVESLCRARQRVEQEQLLASGSLSGSPDVEECAPNTGQCHLCLPPSEPWDQTLGVVNFPRKASRKPPREESSATCVLEQPGALGAQILLVQRPNSGLLAGLWEFPSVTWEPSEQLQRKALLQELQRWAGPLPATHLRHLGEVVHTFSHIKLTYQVYGLALEGQTPVTTVPPGARWLTQEEFHTAAVSTAMKKVFRVYQGQQPGTCMGSKRSQVSSPCSRKKPRMGQQVLDNFFRSHISTDAHSLNSAAQ [Q233V] | 0.335

Reference: the supplement of paper PMC11908140
